Measured values as given in patent US20230220042A1 (SHANGHAI JIAO TONG UNIVERSITY SCHOOL OF MEDICINE, published 2023).

T1: FcγRIIA^131H (human, UniProt P12318 34-217, biotin-labeled)
T1 construct: extracellular domain; Bought protein; also called RIIAH
T1 sequence (looked up): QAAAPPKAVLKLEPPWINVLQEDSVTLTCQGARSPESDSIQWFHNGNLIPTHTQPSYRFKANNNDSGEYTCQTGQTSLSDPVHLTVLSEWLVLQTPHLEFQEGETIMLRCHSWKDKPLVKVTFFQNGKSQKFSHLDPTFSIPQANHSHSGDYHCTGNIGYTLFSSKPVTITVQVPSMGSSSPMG

T2: FcγRIIB (human, UniProt P31994 43-217, biotin-labeled)
T2 construct: extracellular domain; Bought protein; also called CD32b
T2 sequence (looked up): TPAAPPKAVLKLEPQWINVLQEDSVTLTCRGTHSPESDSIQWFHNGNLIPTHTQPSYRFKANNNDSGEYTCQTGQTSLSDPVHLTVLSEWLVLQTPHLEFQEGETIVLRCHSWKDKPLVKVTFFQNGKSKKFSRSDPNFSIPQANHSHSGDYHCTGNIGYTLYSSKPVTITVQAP

T3: FcγRIIA^131R (human, UniProt P12318 34-217, biotin-labeled)
T3 construct: extracellular domain; Bought protein; also called RIIAR
T3 sequence (looked up): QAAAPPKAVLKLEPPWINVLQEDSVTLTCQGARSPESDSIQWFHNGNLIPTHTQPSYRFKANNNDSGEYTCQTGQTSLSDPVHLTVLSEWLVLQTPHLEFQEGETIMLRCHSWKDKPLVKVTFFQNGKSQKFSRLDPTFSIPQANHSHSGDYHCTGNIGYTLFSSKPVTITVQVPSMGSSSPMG


How the values were obtained:
[1] = molecular target: T4, FcγRI (human, UniProt P12314 16-292, biotin-labeled); assay: ELISA, coated antibody, biotin-FcγR;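 on Absorbance value: antibody coated at 2 µg/mL at 100 µL per well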
T4 construct: extracellular domain; Bought protein; also called CD64
Description: (§1) One hundred μl (2 μg/mL) of antibody or mutant thereof were added to the enzyme-linked plate to be coated overnight, then the supernatant was discarded. The plate was blocked with PBS containing 1% BSA for 2 hours, and washed with PBST (PBS containing 0.05% Tween 20). Biotin-labeled FcγR extracellular domain protein (Beijing Sino Biological Co., Ltd) of appropriate concentration was added and incubated at room temperature for 1 hour, then the supernatant was discarded and the plate was washed with PBST. The Biotin-labeled protein was detected by incubating with Streptavidin-HRP (BD BioSciences) at room temperature for 1 hour. The supernatant was removed, and the color-developing solution was added for color development for 20-40 minutes to determine the absorbance of 650 nm (A650).
(§2) Anti-human OX40 antibodies containing these new Fc mutation combinations are expressed and the binding property of the mutant antibody to FcγR are analyzed by Enzyme-linked immunosorbent assay (ELISA).

[2] = molecular target: T1, FcγRIIA^131H; assay: ELISA, coated antibody, biotin-FcγR;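 on Absorbance value: antibody coated at 2 µg/mL at 100 µL per well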
Description: as §1, §2

[3] = molecular target: T2, FcγRIIB; assay: ELISA, coated antibody, biotin-FcγR;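 on Absorbance value: antibody coated at 2 µg/mL at 100 µL per well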
Description: as §1, §2

[4] = molecular target: T5, FcγRIIIA^158V (human, UniProt P08637 17-208, biotin-labeled); assay: ELISA, coated antibody, biotin-FcγR;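 on Absorbance value: antibody coated at 2 µg/mL at 100 µL per well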
T5 construct: extracellular domain; Bought protein; also called RIIIAV; CD16a 158V
Description: as §1, §2

[5] = molecular target: T2, FcγRIIB; assay: ELISA; relative affinity to FcγRIIB over that to FcγRIIA131R
Description: as §1, §2

[6] = molecular target: T3, FcγRIIA^131R; assay: ELISA, coated antibody, biotin-FcγR;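 on Absorbance value: antibody coated at 2 µg/mL at 100 µL per well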
Description: as §1, §2

[7] = molecular target: T6, FcγRIIIA^158F (human, UniProt P08637 17-208, biotin-labeled); assay: ELISA, coated antibody, biotin-FcγR;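 on Absorbance value: antibody coated at 2 µg/mL at 100 µL per well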
T6 construct: extracellular domain; Bought protein; also called RIIIAF
Description: as §1, §2

T6 sequence (P08637 17-208): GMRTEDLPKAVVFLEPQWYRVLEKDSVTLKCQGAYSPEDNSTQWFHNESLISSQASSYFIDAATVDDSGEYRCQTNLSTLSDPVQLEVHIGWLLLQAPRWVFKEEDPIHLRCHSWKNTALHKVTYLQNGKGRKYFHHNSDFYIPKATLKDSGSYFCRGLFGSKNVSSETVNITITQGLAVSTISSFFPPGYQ
T4 sequence (P12314 16-292): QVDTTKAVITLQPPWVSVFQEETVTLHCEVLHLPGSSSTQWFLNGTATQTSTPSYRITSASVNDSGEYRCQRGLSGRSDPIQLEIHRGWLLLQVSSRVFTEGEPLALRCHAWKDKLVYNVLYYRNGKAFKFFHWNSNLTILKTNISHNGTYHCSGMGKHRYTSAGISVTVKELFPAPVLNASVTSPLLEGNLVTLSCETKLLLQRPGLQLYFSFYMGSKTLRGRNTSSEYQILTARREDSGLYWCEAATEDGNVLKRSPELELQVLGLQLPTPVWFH
T5 sequence (P08637 17-208 F176V): as the sequence (P08637 17-208) above, with F160V counted along it

Absorbance value [1]	Relative binding affinity RI/G1 [1]	Absorbance value [2]	Relative binding affinity RIIAH/G1 [2]	Absorbance value [3]	Increased factor of RIIB binding compared with wild-type IgG2 [3]	Relative binding affinity RIIB/G1 [3]	Absorbance value [4]	Relative binding affinity RIIIAV/G1 [4]	RIIB/RIIAR [5]	Absorbance value [6]	Relative binding affinity RIIAR/G1 [6]	Absorbance value [7]	Relative binding affinity RIIIAF/G1 [7]	Binder
0.08 A650	0.03 ratio	0.04 A650	0.08 ratio	0.07 A650	0.93 fold	0.09 ratio	0.06 A650	0.06 ratio	0.57 ratio	–	–	–	–	IgG2 N297A (antibody, name in EU numbering, Entries include an unstated signal peptide) heavy: QVQLQESGPGLVKPSGTLSLTCAVSGGSISSSIWWSWVRQPPGKGLEWIGEIHHSGNTNCNPSLKSRVTISIDKSKNQFSLKLTSVTAADTAVYYCARAGTGTTLDYWGQGTLVTVSSASTKGPSVFPLAPCSRSTSESTAALGCLVKDYFPEPVTVSWNSGALTSGVHTFPAVLQSSGLYSLSSVVTVPSSNFGTQTYTCNVDHKPSNTKVDKTVERKCCVECPPCPAPPVAGPSVFLFPPKPKDTLMISRTPEVTCVVVDVSHEDPEVQFNWYVDGVEVHNAKTKPREEQFASTFRVVSVLTVVHQDWLNGKEYKCKVSNKGLPAPIEKTISKTKGQPREPQVYTLPPSREEMTKNQVSLTCLVKGFYPSDIAVEWESNGQPENNYKTTPPMLDSDGSFFLYSKLTVDKSRWQQGNVFSCSVMHEALHNHYTQKSLSLSPGK light: EIVLTQSPGTLSLSPGERATLSCRASQSVSGDYLAWYQQKLGQAPRLLIYGASIRATGIPDRFSGSGSGTDFTLTISKLEPEDFAVYYCQQYGSSPLTFGGGTKVEIKRTVAAPSVFIFPPSDEQLKSGTASVVCLLNNFYPREAKVQWKVDNALQSGNSQESVTEQDSKDSTYSLSSTLTLSKADYEKHKVYACEVTHQGLSSPVTKSFNRGEC
0.25 A650	0.1 ratio	0.48 A650	0.84 ratio	1.92 A650	25.6 fold	2.54 ratio	0.05 A650	0.06 ratio	0.46 ratio	1.44 A650	5.51 ratio	0.06 A650	0.32 ratio	anti-human OX40 IgG2 antibody Mut_4 (V234M/S267E/S298L/L328W) (antibody, Substitutions in Eu numbering; entries include an unstated signal peptide) heavy: QVQLQESGPGLVKPSGTLSLTCAVSGGSISSSIWWSWVRQPPGKGLEWIGEIHHSGNTNCNPSLKSRVTISIDKSKNQFSLKLTSVTAADTAVYYCARAGTGTTLDYWGQGTLVTVSSASTKGPSVFPLAPCSRSTSESTAALGCLVKDYFPEPVTVSWNSGALTSGVHTFPAVLQSSGLYSLSSVVTVPSSNFGTQTYTCNVDHKPSNTKVDKTVERKCCVECPPCPAPPMAGPSVFLFPPKPKDTLMISRTPEVTCVVVDVEHEDPEVQFNWYVDGVEVHNAKTKPREEQFNLTFRVVSVLTVVHQDWLNGKEYKCKVSNKGWPAPIEKTISKTKGQPREPQVYTLPPSREEMTKNQVSLTCLVKGFYPSDIAVEWESNGQPENNYKTTPPMLDSDGSFFLYSKLTVDKSRWQQGNVFSCSVMHEALHNHYTQKSLSLSPGK light: EIVLTQSPGTLSLSPGERATLSCRASQSVSGDYLAWYQQKLGQAPRLLIYGASIRATGIPDRFSGSGSGTDFTLTISKLEPEDFAVYYCQQYGSSPLTFGGGTKVEIKRTVAAPSVFIFPPSDEQLKSGTASVVCLLNNFYPREAKVQWKVDNALQSGNSQESVTEQDSKDSTYSLSSTLTLSKADYEKHKVYACEVTHQGLSSPVTKSFNRGEC
0.18 A650	0.07 ratio	0.34 A650	0.6 ratio	0.94 A650	12.6 fold	1.25 ratio	0.07 A650	0.08 ratio	1.44 ratio	0.23 A650	0.87 ratio	0.08 A650	0.4 ratio	anti-human OX40 IgG2 antibody Mut_3 (S267V/S298L/L328W) (antibody, name in EU numbering, Substitutions in Eu numbering; entries include an unstated signal peptide) heavy: QVQLQESGPGLVKPSGTLSLTCAVSGGSISSSIWWSWVRQPPGKGLEWIGEIHHSGNTNCNPSLKSRVTISIDKSKNQFSLKLTSVTAADTAVYYCARAGTGTTLDYWGQGTLVTVSSASTKGPSVFPLAPCSRSTSESTAALGCLVKDYFPEPVTVSWNSGALTSGVHTFPAVLQSSGLYSLSSVVTVPSSNFGTQTYTCNVDHKPSNTKVDKTVERKCCVECPPCPAPPVAGPSVFLFPPKPKDTLMISRTPEVTCVVVDVVHEDPEVQFNWYVDGVEVHNAKTKPREEQFNLTFRVVSVLTVVHQDWLNGKEYKCKVSNKGWPAPIEKTISKTKGQPREPQVYTLPPSREEMTKNQVSLTCLVKGFYPSDIAVEWESNGQPENNYKTTPPMLDSDGSFFLYSKLTVDKSRWQQGNVFSCSVMHEALHNHYTQKSLSLSPGK light: EIVLTQSPGTLSLSPGERATLSCRASQSVSGDYLAWYQQKLGQAPRLLIYGASIRATGIPDRFSGSGSGTDFTLTISKLEPEDFAVYYCQQYGSSPLTFGGGTKVEIKRTVAAPSVFIFPPSDEQLKSGTASVVCLLNNFYPREAKVQWKVDNALQSGNSQESVTEQDSKDSTYSLSSTLTLSKADYEKHKVYACEVTHQGLSSPVTKSFNRGEC
0.14 A650	0.05 ratio	0.32 A650	0.56 ratio	1 A650	13.4 fold	1.33 ratio	0.06 A650	0.06 ratio	1.21 ratio	0.29 A650	1.09 ratio	0.07 A650	0.38 ratio	anti-human OX40 IgG2 antibody Mut_2 (H268D/S298L/L328W) (antibody, name in EU numbering, Substitutions in Eu numbering; entries include an unstated signal peptide) heavy: QVQLQESGPGLVKPSGTLSLTCAVSGGSISSSIWWSWVRQPPGKGLEWIGEIHHSGNTNCNPSLKSRVTISIDKSKNQFSLKLTSVTAADTAVYYCARAGTGTTLDYWGQGTLVTVSSASTKGPSVFPLAPCSRSTSESTAALGCLVKDYFPEPVTVSWNSGALTSGVHTFPAVLQSSGLYSLSSVVTVPSSNFGTQTYTCNVDHKPSNTKVDKTVERKCCVECPPCPAPPVAGPSVFLFPPKPKDTLMISRTPEVTCVVVDVSDEDPEVQFNWYVDGVEVHNAKTKPREEQFNLTFRVVSVLTVVHQDWLNGKEYKCKVSNKGWPAPIEKTISKTKGQPREPQVYTLPPSREEMTKNQVSLTCLVKGFYPSDIAVEWESNGQPENNYKTTPPMLDSDGSFFLYSKLTVDKSRWQQGNVFSCSVMHEALHNHYTQKSLSLSPGK light: EIVLTQSPGTLSLSPGERATLSCRASQSVSGDYLAWYQQKLGQAPRLLIYGASIRATGIPDRFSGSGSGTDFTLTISKLEPEDFAVYYCQQYGSSPLTFGGGTKVEIKRTVAAPSVFIFPPSDEQLKSGTASVVCLLNNFYPREAKVQWKVDNALQSGNSQESVTEQDSKDSTYSLSSTLTLSKADYEKHKVYACEVTHQGLSSPVTKSFNRGEC
0.17 A650	0.06 ratio	0.35 A650	0.62 ratio	0.64 A650	8.51 fold	0.85 ratio	0.09 A650	0.09 ratio	1.02 ratio	0.22 A650	0.83 ratio	0.07 A650	0.38 ratio	anti-human OX40 IgG2 antibody Mut_1 (L328W) (antibody, name in EU numbering, Substitutions in Eu numbering; entries include an unstated signal peptide) heavy: QVQLQESGPGLVKPSGTLSLTCAVSGGSISSSIWWSWVRQPPGKGLEWIGEIHHSGNTNCNPSLKSRVTISIDKSKNQFSLKLTSVTAADTAVYYCARAGTGTTLDYWGQGTLVTVSSASTKGPSVFPLAPCSRSTSESTAALGCLVKDYFPEPVTVSWNSGALTSGVHTFPAVLQSSGLYSLSSVVTVPSSNFGTQTYTCNVDHKPSNTKVDKTVERKCCVECPPCPAPPVAGPSVFLFPPKPKDTLMISRTPEVTCVVVDVSHEDPEVQFNWYVDGVEVHNAKTKPREEQFNSTFRVVSVLTVVHQDWLNGKEYKCKVSNKGWPAPIEKTISKTKGQPREPQVYTLPPSREEMTKNQVSLTCLVKGFYPSDIAVEWESNGQPENNYKTTPPMLDSDGSFFLYSKLTVDKSRWQQGNVFSCSVMHEALHNHYTQKSLSLSPGK light: EIVLTQSPGTLSLSPGERATLSCRASQSVSGDYLAWYQQKLGQAPRLLIYGASIRATGIPDRFSGSGSGTDFTLTISKLEPEDFAVYYCQQYGSSPLTFGGGTKVEIKRTVAAPSVFIFPPSDEQLKSGTASVVCLLNNFYPREAKVQWKVDNALQSGNSQESVTEQDSKDSTYSLSSTLTLSKADYEKHKVYACEVTHQGLSSPVTKSFNRGEC
